Data on 4 sequences can be found in the supplement of paper PMC5998384.

Data set [1] relates to HeLa Kyoto. Nature of the data set: solubility in G1/S (NP-40 vs SDS abundance) (log2 ratio); higher = more soluble. Particulars: cell cycle stage: G1/S.
The test system of data set [2] is HeLa Kyoto. Nature of the data set: melting temperature (median over replicates), in situ; higher = more thermally stable.
Data set [3] has as its system HeLa Kyoto. Nature of the data set: solubility change mitosis vs G1/S (difference of NP-40 vs SDS log2 ratios) (log2 ratio difference); higher = more soluble in mitosis.
The test system of data set [4] is HeLa Kyoto. Nature of the data set: thermal stability score vs G1/S (z-score of summed log2 fold changes over temperatures); higher = more thermally stable than in G1/S.
The mark [5] stands for this setting: cell cycle stage: early G1 (4.5 h after nocodazole release).
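Wherever melting temperature (median over replicates), in situ is given: HeLa Kyoto cells synchronized by double thymidine or nocodazole block, proteins quantified by TMT10plex mass spectrometry, three independent biological replicates.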
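Wherever solubility change mitosis vs G1/S (difference of NP-40 vs SDS log2 ratios) is given: synchronized HeLa Kyoto cells (double thymidine block for G1/S, nocodazole release for mitosis), protein amounts in NP-40 versus SDS lysates quantified by mass spectrometry, three biological replicates.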
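Wherever solubility in G1/S (NP-40 vs SDS abundance) is given: HeLa Kyoto cells arrested at G1/S by double thymidine block, proteins quantified by TMT10plex mass spectrometry in mild NP-40 versus SDS extracts, three biological replicates.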
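Wherever thermal stability score vs G1/S (z-score of summed log2 fold changes over temperatures) is given: synchronized HeLa Kyoto cells, proteins quantified by TMT10plex mass spectrometry, three biological replicates, mitosis taken 0.5 h after nocodazole release, G1/S directly after double thymidine block.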

As to “MESVSCSAAAVRTGDMESQRDLSLVPERLQRREQERQLEVERRKQKRQNQEVEKENSHFFVATFVRERAAVEELLERAESVERLEEAASRLQGLQKLINDSVFFLAAYDLRQGQEALARLQAALAERRRGLQPKKRFAFKTRGKDAASSTKVDAAPGIPPAVESIQDSPLPKKAEGDLGPSWVCGFSNLESQVLEKRASELHQRDVLLTELSNCTVRLYGNPNTLRLTKAHSCKLLCGPVSTSVFLEDCSDCVLAVACQQLRIHSTKDTRIFLQVTSRAIVEDCSGIQFAPYTWSYPEIDKDFESSGLDRSKNNWNDVDDFNWLARDMASPNWSILPEEERNIQWD [TBCC]”, the “solubility in G1/S (log2)” value with HeLa Kyoto [1] came to 0.242. The melting temperature stood at 51.8 °C in the data set with HeLa Kyoto [2] (cell cycle stage: G1/S) and 52.4 °C in the data set with HeLa Kyoto [2] (cell cycle stage: mitosis). In addition, the “solubility change mitosis (log2)” value in the data set on HeLa Kyoto [3] was -0.152. The thermal stability score in the data set on HeLa Kyoto [4] (setting [5]) stood at 0.786; in the data set with HeLa Kyoto [4] (cell cycle stage: mitosis), 0.503.
“MESYDIIANQPVVIDNGSGVIKAGFAGDQIPKYCFPNYVGRPKHMRVMAGALEGDLFIGPKAEEHRGLLTIRYPMEHGVVRDWNDMERIWQYVYSKDQLQTFSEEHPVLLTEAPLNPSKNREKAAEVFFETFNVPALFISMQAVLSLYATGRTTGVVLDSGDGVTHAVPIYEGFAMPHSIMRVDIAGRDVSRYLRLLLRKEGVDFHTSAEFEVVRTIKERACYLSINPQKDEALETEKVQYTLPDGSTLDVGPARFRAPELLFQPDLVGDESEGLHEVVAFAIHKSDMDLRRTLFANIVLSGGSTLFKGFGDRLLSEVKKLAPKDIKIKISAPQERLYSTWIGGSILASLDTFKKMWVSKKEYEEDGSRAIHRKTF [ACTR1B]”: in the data set with HeLa Kyoto [1], the “solubility in G1/S (log2)” value is -0.021. Also, the melting temperature was 54 °C in the data set on HeLa Kyoto [2] (cell cycle stage: G1/S) and 53.1 °C in the data set on HeLa Kyoto [2] (cell cycle stage: mitosis). In the data set on HeLa Kyoto [3], the “solubility change mitosis (log2)” value is -0.178. Further, the thermal stability score with HeLa Kyoto [4] (setting [5]) was -0.612; in the data set on HeLa Kyoto [4] (cell cycle stage: mitosis), -1.12.
As for “METAEKECGALGGLFQAIVNDMKSSYPIWEDFNSKATKLHSQLRTTVLAAVAFLDAFQKVADMATNTRGATRDIGSALTRMCMRHRSIETKLRQFTNALLESLINPLQERIEDWKKAANQLDKDHAKEYKRARHEIKKKSSDTLKLQKKARKELLGKGDLQPQLDSALQDVNDMYLLLEETEKQAVRRALIEERGRFCTFITFLQPVVNGELTMLGEITHLQGIIDDLVVLTAEPHKLPPASEQVIKDLKGSDYSWSYQTPPSSPSSSSSRKSSMCSAPSSSSSAKGGGAPWPGGAQTYSPSSTCRYRSLAQPATTTARLSSVSSHDSGFVSQDATYSKPPSPMPSDITSQKSSSSASSEASETCQSVSECSSPTSDWSKVGSHEQPSGATLQRRKDRVELLRDTEPGPASGGTLGPSGEEAPRPRMSPATIAAKHGEEVSPAASDLAMVLTRGLSLEHQKSSRDSLQYSSGYSTQTTTPSCSEDTIPSQGSDYDCYSVNGDADSEGPPEFDKSSTIPRNSNIAQNYRRLIQTKRPASTAGLPTAGLPTATGLPSGAPPGVATIRRTPSTKPTVRRALSSAGPIPIRPPIVPVKTPTVPDSPGYMGPTRAGSEECVFYTDETASPLAPDLAKASPKRLSLPNTAWGSPSPEAAGYPGAGAEDEQQQLAANRHSLVEKLGELVAGAHALGEGQFPFPTALSATPTEETPTPPPAATSDPPAEDMLVAIRRGVRLRRTVTNDRSAPRIL [MTSS1L]”, the “solubility in G1/S (log2)” value in the data set on HeLa Kyoto [1] was 0.191. Further, the melting temperature with HeLa Kyoto [2] (cell cycle stage: G1/S) worked out at 53.5 °C; with HeLa Kyoto [2] (cell cycle stage: mitosis), 54.2 °C. In addition, the “solubility change mitosis (log2)” value in the data set on HeLa Kyoto [3] was -0.0468. The thermal stability score came out at 0.647 with HeLa Kyoto [4] (setting [5]) and 0.625 in the data set with HeLa Kyoto [4] (cell cycle stage: mitosis).
With “METLSFPRYNVAEIVIHIRNKILTGADGKNLTKNDLYPNPKPEVLHMIYMRALQIVYGIRLEHFYMMPVNSEVMYPHLMEGFLPFSNLVTHLDSFLPICRVNDFETADILCPKAKRTSRFLSGIINFIHFREACRETYMEFLWQYKSSADKMQQLNAAHQEALMKLERLDSVPVEEQEEFKQLSDGIQELQQSLNQDFHQKTIVLQEGNSQKKSNISEKTKRLNELKLSVVSLKEIQESLKTKIVDSPEKLKNYKEKMKDTVQKLKNARQEVVEKYEIYGDSVDCLPSCQLEVQLYQKKIQDLSDNREKLASILKESLNLEDQIESDESELKKLKTEENSFKRLMIVKKEKLATAQFKINKKHEDVKQYKRTVIEDCNKVQEKRGAVYERVTTINQEIQKIKLGIQQLKDAAEREKLKSQEIFLNLKTALEKYHDGIEKAAEDSYAKIDEKTAELKRKMFKMST [NUF2]”, the “solubility in G1/S (log2)” value in the data set with HeLa Kyoto [1] is -0.0908. Moreover, the figures for the melting temperature in the data set with HeLa Kyoto [2] (cell cycle stage: G1/S) and in the data set with HeLa Kyoto [2] (cell cycle stage: mitosis) were 48.2 °C and 48.1 °C, respectively. Besides, in the data set with HeLa Kyoto [3], the “solubility change mitosis (log2)” value is -0.0858. Besides, the thermal stability score with HeLa Kyoto [4] (setting [5]) turned out to be 0.86; in the data set on HeLa Kyoto [4] (cell cycle stage: mitosis) it was 1.16.
